Test results published in patent US7981863B2, “Treatment of Parkinson's disease with PDGF” (Neuronova AB, priority 2001, dated 2011).

Test system: cultured, non-adherent mouse neurospheres
Test: Intracellular ATP assay, proliferation of cultured mouse neurospheres
Assay type: cell-based
Settings: growth media supplemented with B27; 1 nM-0.0005 nM; 3 days of treatment; FIG. 1
Experimental: The anterior lateral wall of the lateral ventricle of 5-6 week old mice was enzymatically dissociated in 0.8 mg/ml hyaluronidase and 0.5 mg/ml trypsin in DMEM containing 4.5 mg/ml glucose and 80 units/ml DNase at 37° C. for 20 min. The cells were gently triturated and mixed with three volumes of Neurosphere medium (DMEM/F12, B27 supplement, 125 mM HEPES pH 7.4) containing 20 ng/ml EGF (unless otherwise stated), 100 units/ml penicillin and 100 μg/ml streptomycin. After passing through a 70 μm strainer, the cells were pelleted at 160×g for 5 min. The supernatant was subsequently removed and the cells resuspended in Neurosphere medium supplemented as above, plated out in culture dishes and incubated at 37° C. Neurospheres were ready to be split approximately 7 days after plating.
To split the neurospheres, cells were collected by centrifugation at 160×g for 5 min. The conditioned supernatant (conditioned medium) was removed and saved. The neurospheres were resuspended in 0.5 ml Trypsin/EDTA in HBSS (1×), incubated at 37° C. for 2 min and triturated gently to aid dissociation. Following a further 3 min incubation at 37° C. and trituration, 3 volumes of ice cold Neurosphere medium medium w/o EGF were added to stop further trypsin activity. […]
After 3 days of treatment, intracelluar ATP was measured using the ATP SL kit (Biothema) according to the manufacturer's instructions.

B1: PDGF-BB: human recombinant PDGF-BB, platelet derived growth factor B-chain homodimer (protein)
chain: SLGSLTIAEPAMIAECKTRTEVFEISRRLIDRTNANFLVWPPCVEVQRCSGCCNNRNVQCRPTQVQLRPVQVRKIEIVRKKPIFKKATVTLEDHLACKCETVAAARPVT
B1 was tested, and the “proliferative effect (intracellular ATP)” value was “concentration dependent proliferative effect”.
